Measurements taken from paper PMC12985673.

Target: NRXβ1 ECD (amino acids 81 to 311), His-tagged, labelled with Alexa Fluor 488, P0DI97
Experiment: fluorescence polarisation
Conditions: chain shown with the change; Hill equation fit, shared slope n = 1.05 ± 0.05; NL2 concentration 0-8 µM; parent: 6.2 ± 0.4 µM

Chain of NRXβ1 ECD (amino acids 81 to 311), His-tagged, labelled with Alexa Fluor 488, P0DI97 (P0DI97 other isoform, or with tags, fused parts or gaps): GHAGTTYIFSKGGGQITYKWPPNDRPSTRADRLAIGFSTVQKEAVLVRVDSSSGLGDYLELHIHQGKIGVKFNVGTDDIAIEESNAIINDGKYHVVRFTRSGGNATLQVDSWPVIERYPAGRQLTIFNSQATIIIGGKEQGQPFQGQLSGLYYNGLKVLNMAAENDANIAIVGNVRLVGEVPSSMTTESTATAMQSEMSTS

Kd: 320 nM
B1: full-length neuroligin 2 (NL2), mouse, without the splice insert at site A, Q69ZK9 H279Y; G282K (protein)
chain: MWLLALCLVGLAGAQRGGGGPGGGAPGGPGLGLGSLGEERFPVVNTAYGRVRGVRRELNNEILGPVVQFLGVPYATPPLGARRFQPPEAPASWPGVRNATTLPPACPQNLHGALPAIMLPVWFTDNLEAAATYVQNQSEDCLYLNLYVPTEDGPLTKKRDEATLNPPDTDIRDSGKKPVMLFLHGGSYMEGTGNMFDGSVLAAYGNVIVVTLNYRLGVLGFLSTGDQAAKGNYGLLDQIQALRWLSENIAHFGGDPERITIFGSGAGASCVNLLILSHYSEKLFQKAIAQSGTAISSWSVNYQPLKYTRLLAAKVGCDREDSTEAVECLRRKSSRELVDQDVQPARYHIAFGPVVDGDVVPDDPEILMQQGEFLNYDMLIGVNQGEGLKFVEDSAESEDGVSASAFDFTVSNFVDNLYGYPEGKDVLRETIKFMYTDWADRDNGEMRRKTLLALFTDHQWVAPAVATAKLHADYQSPVYFYTFYHHCQAEGRPEWADAAHGDELPYVFGVPMVGATDLFPCNFSKNDVMLSAVVMTYWTNFAKTGDPNQPVPQDTKFIHTKPNRFEEVVWSKFNSKEKQYLHIGLKPRVRDNYRANKVAFWLELVPHLHNLHTELFTTTTRLPPYATRWPPRTPGPGTSGTRRPPPPATLPPESDIDLGPRAYDRFPGDSRDYSTELSVTVAVGASLLFLNILAFAALYYKRDRRQELRCRRLSPPGGSGSGVPGGGPLLPTAGRELPPEEELVSLQLKRGGGVGADPAEALRPACPPDYTLALRRAPDDVPLLAPGALTLLPSGLGPPPPPPPPSLHPFGPFPPPPPTATSHNNTLPHPHSTTRV
